Measurements reported in patent US20230399384A1.
Read-outs that look alike come from different tables or passages of the source.

Columns and labels:
Details in all cases: remark: other sources report otherwise
[1] = target: T1, sCoV2-RBD (Fc-tagged RBD of SARS-CoV-2 S protein) (SARS-CoV-2; human), P0DTC2; experiment: BLI (Octet) blocking of ACE2 binding to captured sCoV2-RBD
[2] = target: trimeric prefusion S protein of SARS-CoV-2 (SARS-CoV-2), P0DTC2
[3] = target: T1, sCoV2-RBD (Fc-tagged RBD of SARS-CoV-2 …)
[4] = target: T1, sCoV2-RBD (Fc-tagged RBD of SARS-CoV-2 …); experiment: ELISA titration on coated sCoV2-RBD
[5] = target: T1, sCoV2-RBD (Fc-tagged RBD of SARS-CoV-2 …); remark: listed apart in the source

B1: CoV2-14 (antibody, V domains shown)
VH: EVQLQQSGPGLVKPSQTLSLTCAISGDSVSSNSAAWNWIRQSPSRGLEWLGRTYYRSKWYNDYAVSVKSRITINPDTSKNQFSLQLNSVTPEDTAVYYCAREEQQLVHDYYYYGMDVWGQGTMVTVSS
VL: QAVVTQPASVSGSPGQSITISCTGTSSDIGAYNYISWYQQHPGKAPKLIIYEVSNRPSGISYRFSGSKSGNTASLTISGLQAEDEANYYCSSYAGSISFGGGTKVTVL
- IC50 [1]: 3.14 µg/mL
- Kd [2]: 0.22 nM
- EC50 (read off the curve) [3]: 0.5 nM
- EC50 [4]: 0.58 nM
- EC50 [5]: 0.58 nM
